In the DeepSol protein solubility set:

Test: soluble on expression in E. coli; label from the status in PepcDB or PDB records

Q: For “MGSDKIHHHHHHMTWDQSPLRGGEPIVSVQSPFEAIERGPKMEMRDIDFLIIGATKSATTWLQQSLQQDPGIFMPDPELHYFSRYYERGDEWYLEHFAGQEHRRLRGEKSNSYMDVPEAAERIKEKLPEARLIAHVRNPVDRAYSDYCMLYRRAEVGRDIAQYLDPRQGAGGRFLNGGLYYQQLQGYLDRFPAEQILVLLYEDLKIDARAQLARVRGFLGLEADVPLKPLAKKVKDKSEPVVNPTLRRLLRPLKPVAAPFRQNTGFKKLRSLIAGELQYAPLSHDLRARMTDYFAPETEKLGALVGRDLTDWLRNRSPEK”, which “soluble on expression in E. coli” value is on record?
A: not soluble

Q: Which “soluble on expression in E. coli” value does the source give for “MGSDKIHHHHHHMTWNTPKPGEWKSEELSKGRIIDYKAFNFVDGEGVRNSLYVAGCMFHCEGCYNVATWSFDAGIPYTQELEEQIMEDLAQPYVQGLTLLGGEPFLNTGILLPLLKRIRKELPEKDIWSWTGYTWEELMLETPDKLEMLNLLDILVDGRFDKSKKNLMLQFRGSSNQRIIDVPKSLASGQVVIWDKLNDGKQTYEQIDRDGLI” here?
A: not soluble

Q: Which “soluble on expression in E. coli” value does the source give for “MGSDKIHHHHHHMVCNLAIDAYYGCMADFSHILMTRPDFGDDDREWLHQLVADWQVIADLSFADLLLILQNGEGKYIIAEQCRPSTVMSLRAEDVVGNVVPESLCAELDAAMDSESVFRSSKLRTVGKAKVCNVYAPVRHNGKTLGLVVRETNMATRESNGRYESESISAGKQLYEMIPRGQFPYRNPVMNQRHNARVADGFIVLTVDGIVRYASPNAISCFRRLGSVSTMQGEYLSEIGTKLLHENDPVLETLPLVLSGKAAVDSELDANKAAVSMRSLPLMDANGRVGGIVLCRDVSELRRREKELQTKDATISEIHHRVKNNLQAVSALLRLQARKTKSEEVKKELKEAQRRVQTIAMVHEGLSQTADEIVDYDKVISNLLKMAVDLATMRDQHIDVDFVGKFGMMPAQDATPLSLVLTELITNSVEHGFEGRKEGHITISVGRGGNNLNVVVEDDGTGLADEEHDGMARSSGSGLGTQIINTFVTNDFGGTVHWEPRRGGGTRVVLDMKLCAAQDN” here?
A: not soluble

Q: With “MGSDKIHHHHHHMVDADQLRQWGRKVIDTERNALDNLYQYVDSSEFAKACQLILACTGKVIVMGMGKSGHIGNKISATLASTGTPAFFVHPGEASHGDLGVLSENDIVLAISNSGEASEILTLMPVIKRMGLPVIAVTGKPESNMAKHSVVHLCIEVPEEACPLGLAPTSSTTATLVMGDALAVALLQARGFTKDDFALSHPGGSLGRKLLLKVSDVMHKGDDLPLVAEDICITEALYEISKKGLGMTGVVNSQGMLVGIFTDGDLRRVIDAEINLRKTSISEVMTHGCVTVSEGILAAQALKVMDEKEINGLIVTDEQQKPIGALNMLDMVKAGVI” as the sequence, how does the “soluble on expression in E. coli” value read?
A: not soluble

Q: With “MGSDKIHHHHHHMVDLDLTQIQKDILYALITLYKKKSGGSVKGEEIAELINRNPGTVRNQMQALRALGLVEGVPGPKGGYRPTSKAYELLSVTRPEESVVVPVVVNGNVMEELSAEEIVLPSISNPNICQARIRIIGDIKKINPGDSVIVGPTPVNEMMVYGKVVGRDDTENTIVLDIEKIVALPKDTVGEHMSSPIISVDAEESVVNAAKVLAENGIYCTPVQKNGKFVGIFTLDHVAKAVAEGKLNAKVEEVMRPKLVMVEKDTKIGEALRLMRDEKVRILLVTDKGEPVGVITDQKILTRLAPEQVET” as the sequence, how does the “soluble on expression in E. coli” value read?
A: not soluble

Q: With “MGSDKIHHHHHHMVDQSQLRQWGCKVIDIEKSALDNLYQYVDSAEFAQACELILNCSGKVIVMGMGKSGHIGNKISATLASTGTPAFFVHPGEASHGDLGVLSDNDIILAISNSGESSEILALMPVIQRKAIPVIAMTGKPESTMARLAKIHLCIEVPEEACPLGLAPTSSTTATLVMGDAMAIALLQAKGFTRDDFAMSHPGGALGRKLLLKVSNVMHCGDDLPLVKHDICITDALYEISKKGLGMTAIIDEQNKLVGIFTDGDLRRVIDAQVNLRTTPIADVMTRNCVTITENVLAAQALQVMDSRNINGLIVIDKENHPVGALNMLDMVKAGVI” as the sequence, how does the “soluble on expression in E. coli” value read?
A: not soluble

Q: With “MGSDKIHHHHHHMVHSTPTTFAGSKSARPRVAIAGFQHETNTFAPFGAPFDDFVRGGGWPAMTTGAAILDVFPPIEIPIGGFISAAKDTYELIPLVWAAAEPTSFVSDDAFERIAGMICDGIARAGPLDAIYLDLHGAMVVESYQDGEGELLRRVREIVGRDIPIMISLDFHANVTEAMVELSDGITIFRTYPHIDLADTGGRAFSLLEQRIRRGRPFIKAFRKTPFLIPLPAQCTDLEPCMSLYAGLQERVKGPVLNVDVALGFPLADIRECGPAVVAYGIDEVAVTAAADMQLSDMLEAEGRFHMSLLDVKEAVEHAARNGRKGSLIVLADVQDNPGCGGTSDTIGLLKGMVEGGLRNGVLGLLWDPETAEAAHTAGLGAELDVRLGGRYGYDSEPYLARVRVEALSDGVFKANGPCLGGVQVDLGRMARLLILNPGSSVQVVVSSVRFQCLDQDLLRAVGVEPRDQSVVAVKSAVHFRADFAPIAEEILTVESPGAHWCRNDILDYKNLRDGVRRMPISLATQPSEVKIAERRH” as the sequence, how does the “soluble on expression in E. coli” value read?
A: not soluble

Q: With “MGSDKIHHHHHHMVKIKEGFKGERLVSLPEELLASYRREPLINNLYVRKIGFFPRVKYHFLQKEHGCDYAMLIYCTEGKGWYRILGKQYTVEKYQYIIIPPGIPYSFGADEGDPWTIYWLHFQGKLCDQFLPSHPVPVTISPNEYSRLQDRLRLFEEIYSSFSMGYIKEYMIYSSMCLYNFLASFIYLEQFRHIMIPSQKEYPFTARVIHYMRENIQQNLTLKELASYFKYSPSHFSALFFGETGVSPMNYFIRLKIQKACEYIELTNMKLNEIATHLGFEDAAYFSRTFTKVMGCSPSVYRKKEMEI” as the sequence, how does the “soluble on expression in E. coli” value read?
A: not soluble

Q: For “MGSDKIHHHHHHMVTFSIRIISSDRIFLVAEVKALERVYVIGHKNPDTDSVCSAIGYAHFKNNVEKGKTFIPARSGDLTNESLFVLKYFGMNPPLHIETLEPTVEDLELKNPIFVTPDTSAYDVAMLMESRGIKNVPVVSKEKMIGVVTESNIARVYVRRLKIEPLVIHPVPFDQLVRILKAEVVCDYMKEKTVSGKVHIAVDALHVLLGKIEIGDVVIVGDNEPAQIALLEKGAKLMIVVNNAPVSNRVLEIAKEKNAAVLRVKFDAFSAAKLINLSLPVTLVMSKKFPTVTKKDTLEEVKEIVFTSKIRAAFVEDEKGRLCGVITRTDLLKDVRKKVILVDHNEITQAPEGVEKAEILEIIDHHRLGGLSTLNPVFFYNEPVGSTSTIVAEFFLKNGVKMEREIAGILLSGIVSDTLFFKLSTTTEKDRKMANFLADVAKLDLEKFAKKLLKEGMKIPEDVDPAELLKRDVKVYEMGEESFAVSQIMTSDFSTLLKEKERFMNTLKTLKGEFGVKHFFVLFTNPVEEASLLMMDGDQKLVEKAFNAEKKDGLFLLKGVMSRKKDFVPKIGEVLRRER”, which “soluble on expression in E. coli” value is on record?
A: not soluble

Q: For “MGSDKIHHHHHHMVVNALAVGCGLNVAPAQAHKFASNYHCFMVRRFDRTNAGRRLHFASAMTLTRHQDGEDASTGVSYLELADVLIRHGAQTNTDLKELWSRIVFNILVSNTDDHLRNHGYILIPGKGWRLSEAYDLNPVARSDGLKLNITENDNALDLELAREVAEYFRLGLTEADDIIANFRGIVSQWRIIAERLRLPGREQELMAEAFRGAI”, which “soluble on expression in E. coli” value is on record?
A: not soluble

Q: For “MGSDKIHHHHHHMVVNLEGKISKIGQNMKSSIIREILKFAADKDAISFGGGVPDPETFPRKELAEIAKEIIEKEYHYTLQYSTTEGDPVLKQQILKLLERMYGITGLDEDNLIFTVGSQQALDLIGKLFLDDESYCVLDDPAYLGAINAFRQYLANFVVVPLEDDGMDLNVLERKLSEFDKNGKIKQVKFIYVVSNFHNPAGVTTSLEKRKALVEIAEKYDLFIVEDDPYGALRYEGETVDPIFKIGGPERVVLLNTFSKVLAPGLRIGMVAGSKEFIRKIVQAKQSADLCSPAITHRLAARYLERYDLLEQLKPTIELYRRKRTVMLNALEEYFSDIPGVKWVKSEGGLFIWLTLPEGFDTWEMFEYAKRKKVFYVPGRVFKVYDEPSPSMRLSFCLPPDEKIVEGIKRLREVVLEYGKEKHLL”, which “soluble on expression in E. coli” value is on record?
A: soluble

Q: With “MGSDKIHHHHHHMWIRTHYFMAKSIHSYIKEKYKVSLQLDQLQYGSIKPDLLPKYWEGSHYYESCSGTWLAEVAQLLGEQKKRSIRNFSDKLGVILHFTADFFCSAHNLPNLRENMWEHLLYELKLDVAFRHFESFRGIQCLNYDDPYDLLTCCRQDYLSGQPSLERDIHYIYAASLSITDLLVTQALLPVAKPLMLLKDLPESS” as the sequence, how does the “soluble on expression in E. coli” value read?
A: not soluble

Q: Which “soluble on expression in E. coli” value does the source give for “MGSDKIHHHHHHMYDAQAVQTLSSCLLRLKEGKGIGTLVSEDEADLPKVMTRLKQFDPSKNGLSINEIVHLANALIGEHMSATTIQNWTKREVRDIIGVPHRGKKYSINQAAIIYLLDDLKHLFSLEETRELLTIVFKNPNIDEDDLISPLDFYLVYTQHAETSGPIELTEKRLRRSLERINAYRPETVHVLQLCLYARRISHLTHEAKQRLQHVLQT” here?
A: not soluble

Q: Which “soluble on expression in E. coli” value does the source give for “MGSDKIHHHHHHMYIRPFDPWKSKLCTCPFKYTLNPYTGCDHACVYCYITSYIPNAFKVRPKKNLLIQVERELRKFDKRYIIAMSYSSDPYPTIEKELGITRKVLELFRRYDVRCLILTKSDIFERDIDILKELRCAVGVTVTTIDERKAKLLEPNAPLPKDRIRALKKAKKEGIPVYARVDPIIPFYTWEDFRKTVDALSFVSHITVSTLKLRPDIKARMRAKFPELMKKLEPLYTERYEGYAYLRKDMRFRILNEARKIIEGKGITFGSCREGYYSYPTCDGSHLVP” here?
A: not soluble

Q: Which “soluble on expression in E. coli” value does the source give for “MGSDKIHHHHHHMYKLVIIEDEHIIRKWLRYAIDYKALDILVIGEAKDGKEGAVLIKESQPDIVLTDINMPIMTAFDMFEVTKDQTYAKIILSGYADFPNARSAIHYGVLEFLTKPIEKAALWECLQTIIAKIEKQKGSNQKTDACVYIPLPQMTDQIPEVVKDILEWVHAHFQDKISTSRLAHDLGYSESYIYQNIKKHLQMPLSDYINQYRINQAIQLMQQEPDLMVYEIAQAVGIYDYRYFDRVFKKYLGQTVKAFKEEHFMKDTDRSKPC” here?
A: not soluble

Q: With “MGSDKIHHHHHHMYRKDLDHYLKQRLPKAVFLYGEFDFFIHYYIQTISALFKCDNPDIETSLFYASDYEKSQIATLLEQDSLFGGSSLVVLKLDFALHKKFKENDINLFLKALERPSHNRLIIGLYNAKSDTTKYKYTSDAIVKFFQKSPLKDEAICARFFIPKTWESLKFLQERANFLHLDISGHLLNALFEINNEDLGVSFNDLDKLAVLNAPITLEDIQELSSNAGDMDLQKLILGLFLKKSALDIYDYLLKEGKKDADILRGLERYFYQLFLFFAHIKTTGLMDAKEVLGYAPPKEIAENYAKNALRLKEAGYKRVFEIFRLWHIQSMQGQKELGFLYLTSIQKIINP” as the sequence, how does the “soluble on expression in E. coli” value read?
A: not soluble

Q: For “MGSDKIHHHHHHMYVNRIGTFRDHPDLYGVSVYFQGCDAKPKCYMCHNPETWHLSEEYKRPSEVVTKIIDEKLSSLLRYFPKAALVFLGGEPLAPYNREEMLSLSKMFKEKYGERLTVVLFTWRLPKDIVKENLLKYVQYVDEFVMGRYLHTYRRDGFPASKNQIHIDRRTFERMIEAVLRRGHYEGSVFVRKRI”, which “soluble on expression in E. coli” value is on record?
A: not soluble

Q: For “MGSDKIHHHHHHMYWVSEDNVAGKPGKVLYVILPTIGCYRYRIGKPCYMCSYPAQAPRKTSQERIFGYFLEAIGKIKGKEGRFGIRIFTSGSFFDSSEVRRGTRIKIFQEIAKLDNVFEVVVETRSEIIREEWVRELVEIIEGKWFEVALGLETANDDIADISINKGSTFRDFVRASEIIHKAGAKVKTYLLFKPIFLSEGDAIEEMKRSIELAEPYTDTFSINMTNIQKGTLYEKIWERGEYRTPWLWSVVEVLKWAKRKFPGKRFLSDPVGAGSVRGPHNCGDSRDKPVERAIRKFSTTQDLRYLEVSGDCIEEWKYIVSQGLLDWQLIKSQVSPFSTE”, which “soluble on expression in E. coli” value is on record?
A: not soluble

Q: For “MGSDKIHHHHHHNDPNIQIATQDSLSTLNYRINQLLKNGTVTSSSKKNPEVKTDTDKTANDSTSDSRVWSKPEANVYIDIHDNMQLRSATIDAMNAWNRTGAFTFKQIDNKKNAQIIVNVVDDSGTDAAGETATTYNPATGHLLKATVHLNRYYLQNEWYGYSNNRIINTAEHELGHAIGLNHTNSVSVMYPKGSIYTIQPQDIKNLKKIYHEN”, which “soluble on expression in E. coli” value is on record?
A: not soluble
